Numbering of substitutions follows the chain as printed.
B1: 10-8 (ssRNA)
RNA: GGGAGAUAAGAAUAAACGCUCAAUUGACAAGGUACCUGUUGCCUGGCGUUUCUUUCGACAGGAGGCUCACAACAGGC
modifications: 2'-F pyrimidines
B2: 10-2 (ssRNA)
RNA: GGGAGAUAAGAAUAAACGCUCAAGCCUGAGUUAAACAUGACGGUUUGUGACCCUUCGACAGGAGGCUCACAACAGGC
modifications: 2'-F pyrimidines
B3: 10-23 (ssRNA)
RNA: B2 RNA with C25U, A33G, A34G, U38C, G39A, G43C, U44A, U48A
modifications: 2'-F pyrimidines
B4: 8-174 (ssRNA)
RNA: GGGAGGACGAUGCGGUCGAGCUUCUGAGUUAAACUGGGGCCUCCUCAGACGACUCGCCCGA
modifications: 2'-F pyrimidines
B5: 10-37 (ssRNA)
RNA: GGGAGAUAAGAAUAAACGCUCAAGUCUGAGUCCGUAGGGCGAUUUGUGUCCCUUCGACAGGAGGCUCACAACAGGC
modifications: 2'-F pyrimidines
B6: 11-165 (ssRNA)
RNA: GGGAGGACGAUGCGGGUUGAUAGGAGUCAUCAUCGUCUUGUCCGCCAGACGACUCGCCCGA
modifications: 2'-F pyrimidines
B7: 10-62 (ssRNA)
RNA: GGGAGAUAAGAAUAAACGCUCAAGUUAGACUCAACAUGAGUCCCAGCCUCAAUUCGACAGGAGGCUCACAACAGGC
modifications: 2'-F pyrimidines
B8: 8-114 (ssRNA)
RNA: GGGAGGACGAUGCGGCGUGAGCCUAUUUAUGUCAUCAUGUCUGUGCAGACGACUCGCCCGA
modifications: 2'-F pyrimidines
B9: 8-222 (ssRNA)
RNA: B8 RNA with C16U, G21A, U32C, C36U
modifications: 2'-F pyrimidines
B10: 8-215 (ssRNA)
RNA: B8 RNA with U44G, G45U
modifications: 2'-F pyrimidines
B11: 8-203 (ssRNA)
RNA: B8 RNA with U18C
modifications: 2'-F pyrimidines
B12: 10-72 (ssRNA)
RNA: GGGAGAUAAGAAUAAACGCUCAAUGUGGCACUGUUGUCCACAAGGGCCUCAUUCGACAGGAGGCUCACAACAGGC
modifications: 2'-F pyrimidines
B13: 8-113 (ssRNA)
RNA: GGGAGGACGAUGCGGUGAAUUCCUCUGGCUGAAAAUGACUUGUGCCAGACGACUCGCCCGA
modifications: 2'-F pyrimidines
B14: 10-3 (ssRNA)
RNA: GGGAGAUAAGAAUAAACGCUCAAGCCUGAGUUAAACAUGACGGGUUUUGUGACCCCUUUCGACAGGAGGCUCACAACAGGC
modifications: 2'-F pyrimidines
B15: 11-203 (ssRNA)
RNA: GGGAGGACGAUGCGGGGUUUUUCUUUUCUUGUUCUCUUCUUUCCCCCAGACGACUCGCCCGA
modifications: 2'-F pyrimidines
B16: 10-49 (ssRNA)
RNA: GGGAGAUAAGAAUAAACGCUCAACCCGACCUCCUGUAACUGGUUGAGGCACUAUUCGACAGGAGGCUCACAACAGGC
modifications: 2'-F pyrimidines
B17: 10-1 (ssRNA)
RNA: GGGAGAUAAGAAUAAACGCUCAAAGUGAUGUGAGAGCGUGCCUCUAGUCGGUGUUCGACAGGAGGCUCACAACAGGC
modifications: 2'-F pyrimidines
B18: 10-13 (ssRNA)
RNA: GGGAGAUAAGAAUAAACGCUCAAGAUCUGUUGGCGUGUCUACCCGACCCUCCUUUCGACAGGAGGCUCACAACAGGC
modifications: 2'-F pyrimidines
B19: 10-16 (ssRNA)
RNA: GGGAGAUAAGAAUAAACGCUCAAUACAGCGUGUUGGUCCCGGACGGGGACUUAUUUCGACAGGAGGCUCACAACAGGC
modifications: 2'-F pyrimidines
B20: 10-47 (ssRNA)
RNA: GGGAGAUAAGAAUAAACGCUCAAGUCAAGAGGAAAUGACACGGCUCCACUUUUAUUCGACAGGAGGCUCACAACAGGC
modifications: 2'-F pyrimidines
B21: 11-215 (ssRNA)
RNA: GGGAGGACGAUGCGGGUAGUGAGUUUUCAUUGUCUUGUCCCCGUGCAGACGACUCGCCCGA
modifications: 2'-F pyrimidines
B22: 10-11 (ssRNA)
RNA: GGGAGAUAAGAAUAAACGCUCAACGCCUGGACCGUUUGUUUAUCCCCGUAGUCUUCGACAGGAGGCUCACAACAGGC
modifications: 2'-F pyrimidines
B23: 10-76 (ssRNA)
RNA: GGGAGAUAAGAAUAAACGCUCAAAGUUAGGCUUUAAAGCACGAUAAUCAGCAUUCGACAGGAGGCUCACAACAGGC
modifications: 2'-F pyrimidines
B24: 10-40 (ssRNA)
RNA: GGGAGAUAAGAAUAAACGCUCAAUGUCGUUAGUUUAUUGACAAGGCCCGAAGUUCGACAGGAGGCUCACAACAGGC
modifications: 2'-F pyrimidines
B25: 10-57 (ssRNA)
RNA: GGGAGAUAAGAAUAAACGCUCAACGAGCCUCCUACCGUUUAGGUACCAUCUUGUUCGACAGGAGGCUCACAACAGGC
modifications: 2'-F pyrimidines
B26: 10-28 (ssRNA)
RNA: GGGAGAUAAGAAUAAACGCUCAACCUGUUCUGAACGCAAAAUGGCGUGGUGGCUUCGACAGGAGGCUCACAACAGGC
modifications: 2'-F pyrimidines
B27: 10-27 (ssRNA)
RNA: GGGAGAUAAGAAUAAACGCUCAAUUAGCCUCCGACCGUAAGGUCCUUUUCUUGUUCGACAGGAGGCUCACAACAGGC
modifications: 2'-F pyrimidines
B28: 10-29 (ssRNA)
RNA: GGGAGAUAAGAAUAAACGCUCAAUCUGUUGGCGUCGUUCUCCUGACCCUCCUCUUCGACAGGAGGCUCACAACAGGC
modifications: 2'-F pyrimidines
B29: 10-7 (ssRNA)
RNA: GGGAGAUAAGAAUAAACGCUCAAUGCCUUAAGAGCGGAACUCCCUGACCCACCUUCGACAGGAGGCUCACAACAGGC
modifications: 2'-F pyrimidines
B30: 11-17 (ssRNA)
RNA: GGGAGGACGAUGCGGGUUAGAGCGUGACAGUCGUCUUAUCCCGGGUCACAGACGACUCGCCCGA
modifications: 2'-F pyrimidines
B31: 11-166 (ssRNA)
RNA: GGGAGGACGAUGCGGGUUUGAGUUCUGACACGUCUUGUCCCAUGCCAGACGACUCGCCCGA
modifications: 2'-F pyrimidines
B32: 10-36 (ssRNA)
RNA: GGGAGAUAAGAAUAAACGCUCAACGUUAGCAUCUGAACGAUGCCCAGCCUCAAUUCGACAGGAGGCUCACAACAGGC
modifications: 2'-F pyrimidines
B33: 11-107 (ssRNA)
RNA: GGGAGGACGAUGCGGGUUCUGUGUGUCCACGUUCUUACCCCUGUGCAGACGACUCGCCCGA
modifications: 2'-F pyrimidines
B34: 11-221 (ssRNA)
RNA: GGGAGGACGAUGCGGGCAGAGCGAAAAUCGUCUUGUCCCCGACGCCAGACGACUCGCCCGA
modifications: 2'-F pyrimidines
B35: 11-7 (ssRNA)
RNA: GGGAGGACGAUGCGGGUGGAGUCAAAUCGUCUUGUCCCUUGUCCUCAGACGACUCGCCCGA
modifications: 2'-F pyrimidines
B36: 10-52 (ssRNA)
RNA: GGGAGAUAAGAAUAAACGCUCAAUCUUAUUGUGUCCAGCUUCUCCCUGCAGGCUUCGACAGGAGGCUCACAACAGGC
modifications: 2'-F pyrimidines
B37: 11-224 (ssRNA)
RNA: GGGAGGACGAUGCGGACAGCGGCGACUAGCCUGUUCAUGCCUGCCCAGACGACUCGCCCGA
modifications: 2'-F pyrimidines
B38: 10-48 (ssRNA)
RNA: GGGAGAUAAGAAUAAACGCUCAAGAGUUCCCUGUUGACUCGCUCUCCUGACCCUUCGACAGGAGGCUCACAACAGGC
modifications: 2'-F pyrimidines
B39: 8-160 (ssRNA)
RNA: GGGAGGACGAUGCGGGUCCCCGAAUUUAAAGUGCGUUUUCCUCCGGGCAGACGACUCGCCCGA
modifications: 2'-F pyrimidines
B40: 11-123 (ssRNA)
RNA: GGGAGGACGAUGCGGGUGACUCAAAAUGGUGAUCCUCGUUUCGCCAGACGACUCGCCCGA
modifications: 2'-F pyrimidines
B41: 11-151 (ssRNA)
RNA: GGGAGGACGAUGCGGUGAGUCAUAGUGUUGAUCGUCGUAUCCCGUCAGACGACUCGCCCGA
modifications: 2'-F pyrimidines
B42: 10-18 (ssRNA)
RNA: GGGAGAUAAGAAUAAACGCUCAACGUGAUUCCUACCAUCAGGUACCUAUCUUGUUCGACAGGAGGCUCACAACAGGC
modifications: 2'-F pyrimidines
B43: 10-53 (ssRNA)
RNA: GGGAGAUAAGAAUAAACGCUCAAGGCCUCCAACCGCUAAAGGUUCCAUUCUUGUUCGACAGGAGGCUCACAACAGGC
modifications: 2'-F pyrimidines

Target: HGF (hepatocyte growth factor/scatter factor) (UniProt P14210;P14210 P14210:32-494,P14210:495-728)
Assay: filter; HBSMC, 37C
Details: tags: R&D Systems
Description: In binding reactions, RNA concentrations were kept as low as possible—between 1 and 20 pM—to ensure equilibrium in conditions of protein excess. Oligonucleotides were incubated for 15 minutes at 37° C. with varying amounts of the protein in 43 µl of the binding buffer. Thirty-two microliters of each binding mixture placed on pre-wet 0.45 µm nitrocellulose filters under suction. Each well was immediately washed with 0.5 ml binding buffer. The amount of radioactivity retained on the filters was quantitated by imaging. The radioactivity that bound to filters in the absence of protein was used for background correction. The percentage of input oligonucleotide retained on each filter spot was plotted against the corresponding log protein concentration. The nonlinear least square method was used to obtain the dissociation constant (K_d; reference Jellinek, Lynott et al. 1993, Proc. Natl. Acad. Sci. USA. 90:11227–31).

Sequence of HGF (hepatocyte growth factor/scatter factor) (P14210 32-494, chain 1 of 2): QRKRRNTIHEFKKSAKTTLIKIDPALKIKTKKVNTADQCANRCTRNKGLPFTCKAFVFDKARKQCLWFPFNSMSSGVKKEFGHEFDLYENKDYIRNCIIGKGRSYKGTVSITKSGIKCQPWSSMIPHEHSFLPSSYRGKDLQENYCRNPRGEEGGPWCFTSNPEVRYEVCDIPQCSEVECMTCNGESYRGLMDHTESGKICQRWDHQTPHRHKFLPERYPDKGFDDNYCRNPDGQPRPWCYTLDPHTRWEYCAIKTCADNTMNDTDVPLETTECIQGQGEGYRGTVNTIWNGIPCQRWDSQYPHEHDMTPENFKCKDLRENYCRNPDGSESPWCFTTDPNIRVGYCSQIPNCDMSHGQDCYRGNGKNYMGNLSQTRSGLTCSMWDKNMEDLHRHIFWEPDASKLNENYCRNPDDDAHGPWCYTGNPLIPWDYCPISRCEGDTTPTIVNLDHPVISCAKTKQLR
Sequence of HGF (hepatocyte growth factor/scatter factor) (P14210 495-728, chain 2 of 2): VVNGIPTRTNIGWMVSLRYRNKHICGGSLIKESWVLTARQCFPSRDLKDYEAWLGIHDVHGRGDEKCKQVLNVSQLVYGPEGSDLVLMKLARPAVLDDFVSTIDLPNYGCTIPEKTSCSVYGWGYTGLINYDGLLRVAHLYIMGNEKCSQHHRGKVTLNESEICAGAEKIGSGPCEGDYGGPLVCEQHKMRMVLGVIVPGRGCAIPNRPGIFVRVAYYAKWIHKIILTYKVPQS

Binder	Kd
B1	0.92 nM
B2	0.069 nM
B3	0.33 nM
B4	0.23 nM
B5	3.05 nM
B6	0.073 nM
B7	0.44 nM
B8	0.071 nM
B9	0.13 nM
B10	0.077 nM
B11	0.14 nM
B12	0.45 nM
B13	0.083 nM
B14	0.072 nM
B15	0.26 nM
B16	0.24 nM
B17	0.094 nM
B18	0.72 nM
B19	0.21 nM
B20	0.39 nM
B21	0.091 nM
B22	0.61 nM

Binder	Kd
B23	0.17 nM
B24	0.35 nM
B25	0.14 nM
B26	0.86 nM
B27	0.83 nM
B28	1.75 nM
B29	1.45 nM
B30	0.13 nM
B31	0.079 nM
B32	1.94 nM
B33	0.14 nM
B34	0.062 nM
B35	0.11 nM
B36	0.16 nM
B37	0.11 nM
B38	0.31 nM
B39	0.15 nM
B40	0.09 nM
B41	0.17 nM
B42	0.3 nM
B43	0.31 nM

From patent US6344321, “Nucleic acid ligands which bind to hepatocyte growth factor/scatter factor (HGF/SF) or its receptor c-met” (Gilead Sciences, Inc.)
